The record followed here is patent US20150274808A1 (Biogen, published 2015).

This test has as its target T1, human antigen that binds to mAb1 (human LINGO-1) (human, UniProt Q96FE5 42-538, limits assumed).
T1 sequence (looked up): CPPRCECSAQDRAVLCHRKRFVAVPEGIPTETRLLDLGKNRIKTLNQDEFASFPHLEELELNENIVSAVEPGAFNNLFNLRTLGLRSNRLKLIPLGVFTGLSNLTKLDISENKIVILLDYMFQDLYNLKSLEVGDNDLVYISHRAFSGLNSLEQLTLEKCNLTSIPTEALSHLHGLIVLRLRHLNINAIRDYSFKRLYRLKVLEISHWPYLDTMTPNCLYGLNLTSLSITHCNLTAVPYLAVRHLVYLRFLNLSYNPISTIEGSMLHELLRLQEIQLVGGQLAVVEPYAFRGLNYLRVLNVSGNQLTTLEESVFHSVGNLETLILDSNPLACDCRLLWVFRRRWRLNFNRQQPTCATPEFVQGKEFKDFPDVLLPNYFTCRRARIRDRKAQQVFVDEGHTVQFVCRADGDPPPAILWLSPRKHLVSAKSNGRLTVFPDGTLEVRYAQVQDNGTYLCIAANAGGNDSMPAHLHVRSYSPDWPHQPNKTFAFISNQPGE
The test can be described thus: direct binding ELISA on plate-coated human antigen; preparation with 39% trisulfide at LC5-HC5. The procedure:
Costar 96-well easy wash plates were coated overnight with 5 μg/mL human antigen that binds to mAb1 (50 μL/well), in 50 mM sodium carbonate (pH 9.5) at 4° C. Plates were washed 3 times with 350 μL of PBS using a plate washer and blocked with 1% BSA, 0.1% ovalbumin, and 0.1% non-fat dry milk in Hank's balanced salt buffer containing 25 mM HEPES (pH 7.0) for 1 hour at room temperature. Plates were then washed again, and incubated for 1 h with a 3-fold dilution series set up for each test compound (50 μL/well, 8 dilutions) starting at 10 μg/mL and all in 0.1% BSA, 0.1% ovalbumin, and 0.1% non-fat dry milk in Hank's balanced salt buffer containing 25 mM HEPES (pH 7.0), and again washed. Bound mAb1 was detected using AP-anti-human Fab. […] Plates were read at 405 nm on a Molecular Devices plate reader. EC₅₀ values for binding were calculated from the titration curve using prism software. The function of mAb2 was assessed as for mAb1 except that 96 well microplates were coated overnight at 4° C. with 1 μg/mL (in 15 mM Na₂CO₃, 35 mM NaHCO₃, pH 9.6) of a human antigen that binds to mAb2. […] Binding was determined using a horseradish peroxidase-conjugated goat anti-human polyclonal antibody (Jackson ImmunoResearch, West Grove, Pa.) followed by measurement of horse radish peroxidase activity using the substrate tetramethylbenzidine.
A general note: In an ELISA, binding on a coated surface is turned into a signal by an enzyme label.

B1: anti-LINGO-1 antibody Li81 (antibody, V domains shown)
VH: EVQLLESGGGLVQPGGSLRLSCAASGFTFSAYEMKWVRQAPGKGLEWVSVIGPSGGFTFYADSVKGRFTISRDNSKNTLYLQMNSLRAEDTAVYYCATEGDNDAFDIWGQGTTVTVSS
VL: DIQMTQSPATLSLSPGERATLSCRASQSVSSYLAWYQQKPGQAPRLLIYDASNRATGIPARFSGSGSGTDFTLTISSLEPEDFAVYYCQQRSNWPMYTFGQGTKLEIK
notes: Tested as an aglycosyl human IgG1 made in CHO cells; They differ only in the share of trisulfide at the light-heavy (LC5-HC5) interchain bond; also called mAb1; Mab1
In general, EC50 refers to the concentration that produces a half-maximal response. High values mean lower potency in that assay, low ones higher potency in that assay. B1 registered an EC50 of 0.02 nM.
